T1: porcine heart citrate synthase (pig, UniProt P00889 28-464)
T1 construct: citrate synthase from porcine heart; Client protein; the complex with CgHspB1 appeared only after heating at 55 °C (heat-denatured CS); also called CS
T1 sequence (looked up): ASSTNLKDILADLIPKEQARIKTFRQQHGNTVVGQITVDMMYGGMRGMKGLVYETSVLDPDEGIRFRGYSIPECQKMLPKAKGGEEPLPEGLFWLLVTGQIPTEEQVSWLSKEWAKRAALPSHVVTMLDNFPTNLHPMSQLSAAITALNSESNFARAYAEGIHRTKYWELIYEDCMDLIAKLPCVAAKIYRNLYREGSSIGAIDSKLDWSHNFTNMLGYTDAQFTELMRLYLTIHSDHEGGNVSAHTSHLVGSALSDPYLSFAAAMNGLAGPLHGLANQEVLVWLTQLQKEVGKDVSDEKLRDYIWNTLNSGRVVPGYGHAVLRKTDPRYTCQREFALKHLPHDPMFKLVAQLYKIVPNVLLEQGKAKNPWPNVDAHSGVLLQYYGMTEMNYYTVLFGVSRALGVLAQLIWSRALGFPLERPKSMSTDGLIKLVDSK


Columns and labels:
[1] = target: the molecule itself; test: SEC; mixture of CgHspB1WT (30 µM) and IPMDH incubated at 25 and 55 °C for 30 min and analysed at the same temperature; the 55 °C mixture also cooled and analysed at 25 °C
[2] = target: the molecule itself; test: SEC-MALS; TSKgel G3000XL column, buffer B (50 mM Tris/HCl pH 7.5, 0.1 mM EDTA, 150 mM NaCl), room temperature
[3] = target: the molecule itself; test: SEC; SB-804HQ column on HPLC, buffer B with 20% ethylene glycol, 6 or 12 µM as monomer, heated 30 min at the specified temperature and run at the same temperature
[4] = target: T1, porcine heart citrate synthase; test: SEC; mixture of CgHspB1WT (30 µM) and CS incubated at 55 °C for 30 min, cooled to 25 °C and analysed at 25 °C; details: both partners purified

Row | Binder | stoichiometry N [1] | stoichiometry N [2] | stoichiometry N [3] | binding result [4]
1 | isopropyl malate dehydrogenase from Thermus thermophilus HB8 (enzyme, UniProt Q5SIY4 1-345, looked up, isopropyl malate dehydrogenase (3-isopropylmalate dehydrogenase) from Thermus thermophilus HB8; also called IPMDH) MKVAVLPGDGIGPEVTEAALKVLRALDEAEGLGLAYEVFPFGGAAIDAFGEPFPEPTRKGVEEAEAVLLGSVGGPKWDGLPRKIRPETGLLSLRKSQDLFANLRPAKVFPGLERLSPLKEEIARGVDVLIVRELTGGIYFGEPRGMSEAEAWNTERYSKPEVERVARVAFEAARKRRKHVVSVDKANVLEVGEFWRKTVEEVGRGYPDVALEHQYVDAMAMHLVRSPARFDVVVTGNIFGDILSDLASVLPGSLGLLPSASLGRGTPVFEPVHGSAPDIAGKGIANPTAAILSAAMMLEHAFGLVELARKVEDAVAKALLETPPPDLGGSAGTEAFTATVLRHLA | 2 |  |  | 
2 | wild‐type CgHspB1 (HspB1/Hsp27 from Chinese hamster ovary cells) (natural protein, Chinese hamster (Cricetulus griseus), UniProt A0A8C2QII0 1-213, looked up, HspB1/Hsp27 of Chinese hamster (Cricetulus griseus), full-length gene amplified from total cDNA of CHO cells; deduced subunit mass 23.4 kDa; 16-mer at room temperature by SEC-MALS; the oligomer varies with temperature and concentration; also called CgHspB1WT; HspB1 from CHO cells; source: E. coli BL21 Star (DE3) / BL21 (DE3), pET23b, purified (DEAE, RESOURCE Q, Superdex 200); copies: 16) MTERRVPFSLLRSPSWEPFRDWYPAHSRLFDQAFGVPRLPDEWSQWFSAAGWPGYVRPLPAATAEGPAAVALAAPLAAPAFHRALNRQLSSGVSEIRQTADRWRVSLDVNHFAPEELTVKTKEGVVEITGKHEERQDEHGYISRCFTRKYTLPPGVDPTLVSSSLSPEGTLTVEAPLPKTATQSAEITIPVTFEARAQIGGQEAGKSEQSGAK |  | 16 | ~2 | binds
3 | CgHspB1 with S15D mutation (natural protein, Chinese hamster (Cricetulus griseus), UniProt A0A8C2QII0 1-213, looked up, HspB1/Hsp27 of Chinese hamster (Cricetulus griseus), full-length gene from CHO cell cDNA, with S15D; Made by site-directed mutagenesis on pET23b-CgHspB1WT; also called CgHspB1S15D; CgHspBS15D; source: E. coli BL21 (DE3), pET23b, purified (DEAE, RESOURCE Q, Superdex 200)) MTERRVPFSLLRSPDWEPFRDWYPAHSRLFDQAFGVPRLPDEWSQWFSAAGWPGYVRPLPAATAEGPAAVALAAPLAAPAFHRALNRQLSSGVSEIRQTADRWRVSLDVNHFAPEELTVKTKEGVVEITGKHEERQDEHGYISRCFTRKYTLPPGVDPTLVSSSLSPEGTLTVEAPLPKTATQSAEITIPVTFEARAQIGGQEAGKSEQSGAK |  |  | ~2 | 

Reference: PMC6768103, “Functional and structural characterization of HspB1/Hsp27 from Chinese hamster ovary cells” (FEBS Open Bio, 2019)
